# Source: patent US20100291088A1 (published 2010)
# B1: IL-18BP-Fc (Fc fusion, UniProt O95998 31-194, looked up, not shown: a dimerising Fc or GST)
# chain: TPVSQTTTAATASVRSTKDPCPSQPPVFPAAKQCPALEVTWPEVEVPLNGTLSLSCVACSRFPNFSILYWLGNGSFIEHLPGRLWEGSTSRERGSTGTQLCKALVLEQLTPALHSTNFSCVLVDPEQVVQRHVVLAQLWAGLRATLPPTQEALPSSHSSPQQQG
# Target: (4C/A)-huIL-18 (human, UniProt Q14116 37-193)
# Test: cell-based or functional assay
binder,measurement,value
B1,"KG-1 neutralization potency in vitro (IC50, nM)",0.03 nM
